Test results reported in PMC6820730 (2019).
No end group written: not given here.

Biological target: AVPR1a (Homo sapiens, UniProt P37288)
Assay: 125I-OVTA competition binding, intact CHO cells

Sequence of AVPR1a (P37288 whole entry): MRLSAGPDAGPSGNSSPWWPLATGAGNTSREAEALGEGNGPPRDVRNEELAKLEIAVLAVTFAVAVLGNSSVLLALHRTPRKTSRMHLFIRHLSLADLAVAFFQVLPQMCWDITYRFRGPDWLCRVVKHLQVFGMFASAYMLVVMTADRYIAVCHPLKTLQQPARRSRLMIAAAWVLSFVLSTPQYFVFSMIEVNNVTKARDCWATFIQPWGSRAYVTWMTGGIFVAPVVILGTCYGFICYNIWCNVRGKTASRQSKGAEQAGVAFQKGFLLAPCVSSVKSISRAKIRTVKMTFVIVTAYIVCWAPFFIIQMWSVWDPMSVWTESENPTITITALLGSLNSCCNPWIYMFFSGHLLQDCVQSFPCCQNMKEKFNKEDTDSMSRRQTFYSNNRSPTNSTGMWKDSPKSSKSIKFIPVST

Q: For CYIQNCPPG (not fully specified; cysteine pairing not given here) [Pro8-OXT], which Ki is on record?
A: Its Ki is 8.71 nM.
